The results in this text go back to article PMC10842940, “Establishment of dsDNA-dsDNA interactions by the condensin complex” (Molecular cell, 2023).

In test [1] the target is T1, Cut14^Smc2 (fission yeast condensin SMC subunit) (S. pombe, UniProt P41003 1-1172).
T1 construct: Cut14 (Smc2), S. pombe condensin SMC subunit; cDNA cloned into an S. cerevisiae expression vector; The Pk tag is used for the condensin immunoprecipitation in the DNA assays; also called Cut14-3xPk; source: S. cerevisiae (w303, pep4 deleted), co-overexpressed with the other four condensin subunits from GAL1-10 promoters; in cell extract, and purified as the complex (IgG-agarose, 3C protease …)
T1 sequence (looked up): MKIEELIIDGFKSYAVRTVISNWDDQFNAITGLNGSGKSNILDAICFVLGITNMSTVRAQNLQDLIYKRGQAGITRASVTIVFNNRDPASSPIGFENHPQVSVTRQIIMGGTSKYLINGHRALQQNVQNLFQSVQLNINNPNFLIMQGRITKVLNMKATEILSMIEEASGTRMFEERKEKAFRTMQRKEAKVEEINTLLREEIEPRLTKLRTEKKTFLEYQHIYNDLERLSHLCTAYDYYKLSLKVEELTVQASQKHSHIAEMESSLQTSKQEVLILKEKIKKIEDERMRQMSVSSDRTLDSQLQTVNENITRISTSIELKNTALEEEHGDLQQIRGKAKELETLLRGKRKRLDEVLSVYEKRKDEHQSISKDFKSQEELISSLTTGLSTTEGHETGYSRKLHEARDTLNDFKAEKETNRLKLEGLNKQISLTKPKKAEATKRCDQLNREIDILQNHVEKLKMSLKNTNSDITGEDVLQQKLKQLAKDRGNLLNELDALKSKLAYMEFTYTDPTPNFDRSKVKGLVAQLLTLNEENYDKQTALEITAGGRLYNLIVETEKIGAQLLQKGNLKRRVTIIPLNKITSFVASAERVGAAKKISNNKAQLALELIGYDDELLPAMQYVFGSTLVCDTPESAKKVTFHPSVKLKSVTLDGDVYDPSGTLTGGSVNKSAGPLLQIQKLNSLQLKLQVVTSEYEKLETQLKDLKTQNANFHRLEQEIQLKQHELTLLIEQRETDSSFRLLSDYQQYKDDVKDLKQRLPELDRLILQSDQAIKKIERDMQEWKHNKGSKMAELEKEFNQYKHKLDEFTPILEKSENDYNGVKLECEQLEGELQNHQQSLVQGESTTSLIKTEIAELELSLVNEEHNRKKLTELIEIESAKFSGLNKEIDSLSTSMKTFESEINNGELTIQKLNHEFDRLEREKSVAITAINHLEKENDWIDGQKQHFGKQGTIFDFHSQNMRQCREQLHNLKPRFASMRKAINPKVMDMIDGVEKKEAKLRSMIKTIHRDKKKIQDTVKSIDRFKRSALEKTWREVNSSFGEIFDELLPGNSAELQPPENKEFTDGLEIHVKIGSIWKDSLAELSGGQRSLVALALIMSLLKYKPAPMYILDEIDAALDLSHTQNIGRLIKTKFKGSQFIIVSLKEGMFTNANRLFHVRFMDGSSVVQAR
Description: cross-linking; sulfo-SDA cross-link mass spectrometry (CLMS) of the purified five-subunit condensin complex with equimolar 124 bp linear dsDNA and 0.5 mM ADP·BeF3 (DNA-gripping state); CL buffer, 30°C 30 min, UV 365 nm on ice; 1% FDR at residue-pair level. As to conditions: both partners purified.

Test [2] deals with T2, Cut3^Smc4 (fission yeast condensin SMC subunit) (S. pombe, UniProt P41004 1-1324).
T2 construct: Cut3 (Smc4), S. pombe condensin SMC subunit; cDNA cloned into an S. cerevisiae expression vector; source: S. cerevisiae (w303, pep4 deleted), co-overexpressed with the other four condensin subunits from GAL1-10 promoters; in cell extract, and purified as the complex (IgG-agarose, 3C protease elution, heparin, Superose 6)
T2 sequence (looked up): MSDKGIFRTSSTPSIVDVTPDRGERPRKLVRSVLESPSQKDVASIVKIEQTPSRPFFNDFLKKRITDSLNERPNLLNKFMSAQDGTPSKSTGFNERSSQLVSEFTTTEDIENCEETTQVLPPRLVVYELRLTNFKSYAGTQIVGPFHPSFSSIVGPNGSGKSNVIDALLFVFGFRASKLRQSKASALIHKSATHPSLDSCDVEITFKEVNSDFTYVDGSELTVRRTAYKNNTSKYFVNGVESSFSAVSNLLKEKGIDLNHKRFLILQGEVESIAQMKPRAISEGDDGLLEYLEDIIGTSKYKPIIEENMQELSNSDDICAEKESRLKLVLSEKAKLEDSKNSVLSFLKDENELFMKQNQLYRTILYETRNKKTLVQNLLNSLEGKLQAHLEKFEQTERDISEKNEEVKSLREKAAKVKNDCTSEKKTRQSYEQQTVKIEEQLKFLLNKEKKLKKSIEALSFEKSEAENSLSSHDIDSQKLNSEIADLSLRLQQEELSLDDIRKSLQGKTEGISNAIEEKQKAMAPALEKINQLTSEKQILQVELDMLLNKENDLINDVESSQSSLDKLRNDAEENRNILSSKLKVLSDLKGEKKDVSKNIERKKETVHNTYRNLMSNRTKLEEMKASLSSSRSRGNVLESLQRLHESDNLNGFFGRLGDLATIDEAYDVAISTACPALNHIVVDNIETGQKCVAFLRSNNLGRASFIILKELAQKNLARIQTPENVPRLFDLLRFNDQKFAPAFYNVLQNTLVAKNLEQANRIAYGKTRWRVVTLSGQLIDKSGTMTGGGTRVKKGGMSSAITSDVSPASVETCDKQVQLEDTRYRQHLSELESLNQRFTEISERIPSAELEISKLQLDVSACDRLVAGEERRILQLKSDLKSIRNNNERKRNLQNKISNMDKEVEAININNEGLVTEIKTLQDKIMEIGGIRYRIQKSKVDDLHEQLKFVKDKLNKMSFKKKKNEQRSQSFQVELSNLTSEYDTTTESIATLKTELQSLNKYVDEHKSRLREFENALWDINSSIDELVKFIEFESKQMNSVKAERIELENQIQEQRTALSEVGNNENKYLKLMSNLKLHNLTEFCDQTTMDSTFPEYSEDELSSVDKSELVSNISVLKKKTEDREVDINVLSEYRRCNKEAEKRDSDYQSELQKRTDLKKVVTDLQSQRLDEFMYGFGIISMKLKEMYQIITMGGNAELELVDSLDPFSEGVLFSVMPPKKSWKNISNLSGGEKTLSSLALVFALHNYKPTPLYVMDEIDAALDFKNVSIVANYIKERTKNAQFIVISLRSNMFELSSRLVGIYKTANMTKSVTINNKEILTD
The test is described as above. Conditions: both partners purified.

B1: Cnd1^Ycs4 (fission yeast condensin HEAT-repeat subunit) (natural protein, S. pombe, UniProt O94679 1-1158, looked up)
chain: MSLDLLSRLKKYIHDEENSDLDSIYAECENAGLTAVVNDVIDTLLLGTSSCFDEDCLEKLFAICSHFADLSSSVRNKVYDLLTSNISSESAILEDMISANATDFTVPQTNLETTGIAFQLTVNSLSSSNQLSVIRSSTNTVKGRKKNPTTNSNWNGISHVNALLDAIITLFQKKLSRVWTTSSERDMFLSLFLKPIYTLMESEINIKNASFRSRLFNIIGLAVQFHNHTTAAETNIIQNLQYFEHLSEYAADLVHIVTVQFNSVTLAEGIIRTLCSLEFNDNDVKGPKQVALFLVRLSSLIPNLCLKQLTQLVKLLDSESYTLRCAIIEVLANVVIDQIHDEAQNEMSESVPATVQSLMDLLSERLLDISPYCRTKVLHVFIKIFDLPIKYPRKRQEIAELVIRCLQDRSSHVRRNAIKLFSKLLTTHPFSVMHNGLLTRNIWEKGLSIIEEQLNSLQPKQQEKVVDSELEVDENLLEDATMIQDDESHEGESHLENSLSEYVDSVPAEEIVKVNLTKRFYLEALQYIDIVEAGAKIISQLLFAKNKSEVIESMDFFVFCNSFGISSSKLYIKKMIHLIWVKGTSDEGNNIQNHVLSCYKTLFFEPPPNSGTNEAANYIARNLISLTYDASLAELTSLEQMLCILMKDGYFSHLVITKLWQVYSYQKKDISRTQRRGSIIVIGMLALGNTDVVMQGLDHLIQIGLGPPGLEDLVLARYTCIAIKRIGKDASGSSNINFPNSHTLCQKLCMLLLRPSFSEEWFGLEEQAIEAIYAVAKHPDELCTNIILLLTKQLFKPSNHENTTSNDDHAMDEDLDDSPEEETLKDEEEIGIRLAHLIFLVGHVAIKQLVYIEYCEAEFKRRKADAERLAVQNSNNPINGQETSEYDLITGTSEDDFSEAMTFIRERELLYGENSLLSRFAPLVVELCSNHKSHNNQSLLLAASLTLSKFMCLSNNFCMEHLPLLITILEKCDNPIIRNNLVIGLADLTVCFNHFIDEISEYLYRRLMDEESSVKKTCFMTLAFLILAGQIKVKGQLGIMARSLEDEDARISDLARMFFTDFAAKDNSVYNNFIDIFSVLSRSAEEQDEDDAKFKRIIRFLTSFIEKERHTKQLAERLAARLDRCKTQRQWDHVVYALSLLPHKADNIQKLIDDGYHE
notes: Cnd1 (Ycs4), S. pombe condensin HEAT-repeat subunit; cDNA cloned into an S. cerevisiae expression vector; source: S. cerevisiae (w303, pep4 deleted), co-overexpressed with the other four condensin subunits from GAL1-10 promoters; in cell extract, and purified as the complex (IgG-agarose, 3C protease elution, heparin, Superose 6)
As for B1, the binding result in test [1] and in test [2] was “binds” each time.
